The results in this text go back to paper PMC11629876.

Experiment in all cases: ELISA; dose response: host component coated, recombinant protein added at increasing concentrations, 2 h 37°C; detected with mouse antiserum; KD by non-linear regression, one site-specific binding (GraphPad Prism)
The target in test [1] is plasminogen (human plasma) (human).
The target of test [2] is cellular fibronectin (human foreskin fibroblasts) (human).
The target in test [3] is collagen I (rat tail) (rat) (UniProt P02454).
Test [4] addresses integrin α5β1 (UniProt P08648).
Test [5] addresses integrin α8β1 (UniProt P53708).
Test [6] concerns the target integrin αVβ1 (UniProt P06756).
Test [7] addresses integrin αVβ3 (UniProt P06756).
For test [8], the target named is integrin αVβ5 (UniProt P06756).
Sequence of integrin αVβ5 (P06756 31-1048, chain 1 of 2): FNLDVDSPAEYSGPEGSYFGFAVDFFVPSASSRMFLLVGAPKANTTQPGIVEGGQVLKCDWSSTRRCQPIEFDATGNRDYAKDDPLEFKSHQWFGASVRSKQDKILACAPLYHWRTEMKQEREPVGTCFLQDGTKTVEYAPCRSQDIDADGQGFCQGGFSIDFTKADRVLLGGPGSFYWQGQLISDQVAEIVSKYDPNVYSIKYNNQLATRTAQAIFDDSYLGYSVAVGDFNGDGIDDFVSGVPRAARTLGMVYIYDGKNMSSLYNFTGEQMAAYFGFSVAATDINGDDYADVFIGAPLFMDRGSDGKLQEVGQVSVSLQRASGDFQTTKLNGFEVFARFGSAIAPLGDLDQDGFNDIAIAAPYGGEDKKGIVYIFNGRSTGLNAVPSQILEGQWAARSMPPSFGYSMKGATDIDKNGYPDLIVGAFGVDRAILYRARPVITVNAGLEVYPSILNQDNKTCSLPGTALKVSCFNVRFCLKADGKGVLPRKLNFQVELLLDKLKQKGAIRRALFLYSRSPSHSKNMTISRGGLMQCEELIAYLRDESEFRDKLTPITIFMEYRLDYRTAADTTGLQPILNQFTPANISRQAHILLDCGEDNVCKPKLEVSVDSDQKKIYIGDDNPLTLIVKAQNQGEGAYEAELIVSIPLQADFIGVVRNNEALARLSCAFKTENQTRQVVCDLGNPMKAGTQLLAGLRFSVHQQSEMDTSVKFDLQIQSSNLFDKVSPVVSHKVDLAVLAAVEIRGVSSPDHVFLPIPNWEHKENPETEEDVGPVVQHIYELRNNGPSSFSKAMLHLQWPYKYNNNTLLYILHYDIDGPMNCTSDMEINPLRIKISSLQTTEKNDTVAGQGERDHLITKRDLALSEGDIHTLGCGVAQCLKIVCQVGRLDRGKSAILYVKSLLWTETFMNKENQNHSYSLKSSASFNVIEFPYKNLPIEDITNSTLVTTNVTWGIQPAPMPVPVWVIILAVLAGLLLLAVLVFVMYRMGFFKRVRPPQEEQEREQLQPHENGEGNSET
Sequence of integrin αVβ5 (P18084 24-719, chain 2 of 2, further chain): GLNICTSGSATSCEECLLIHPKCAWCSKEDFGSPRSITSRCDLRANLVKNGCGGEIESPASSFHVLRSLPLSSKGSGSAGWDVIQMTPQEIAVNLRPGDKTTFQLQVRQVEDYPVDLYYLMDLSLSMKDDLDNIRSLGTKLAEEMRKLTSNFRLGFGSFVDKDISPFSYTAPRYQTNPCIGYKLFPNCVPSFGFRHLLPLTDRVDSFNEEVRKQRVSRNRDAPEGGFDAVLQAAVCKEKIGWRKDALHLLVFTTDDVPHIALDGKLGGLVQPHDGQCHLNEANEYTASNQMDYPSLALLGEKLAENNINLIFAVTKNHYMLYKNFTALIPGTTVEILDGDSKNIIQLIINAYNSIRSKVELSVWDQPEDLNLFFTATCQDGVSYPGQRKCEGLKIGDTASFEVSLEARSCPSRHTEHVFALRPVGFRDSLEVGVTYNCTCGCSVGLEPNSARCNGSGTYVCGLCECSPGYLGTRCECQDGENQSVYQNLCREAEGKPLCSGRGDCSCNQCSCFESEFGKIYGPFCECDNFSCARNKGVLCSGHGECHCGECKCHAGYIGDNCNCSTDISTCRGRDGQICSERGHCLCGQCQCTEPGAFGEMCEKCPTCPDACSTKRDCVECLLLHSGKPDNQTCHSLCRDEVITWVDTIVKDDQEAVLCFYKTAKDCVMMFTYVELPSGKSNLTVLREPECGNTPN
Test [9] concerns the target integrin αVβ6 (UniProt P06756).
For test [10], the target named is plasma fibronectin (human plasma) (human).
The target in test [11] is vitronectin (human plasma) (human).

pKd: −log10 of the molar value.

Sequence of integrin αVβ6 (P06756 31-1048, chain 1 of 2): as the sequence (P06756 31-1048, chain 1 of 2) above
Sequence of integrin αVβ6 (P18564 22-709, chain 2 of 2, further chain): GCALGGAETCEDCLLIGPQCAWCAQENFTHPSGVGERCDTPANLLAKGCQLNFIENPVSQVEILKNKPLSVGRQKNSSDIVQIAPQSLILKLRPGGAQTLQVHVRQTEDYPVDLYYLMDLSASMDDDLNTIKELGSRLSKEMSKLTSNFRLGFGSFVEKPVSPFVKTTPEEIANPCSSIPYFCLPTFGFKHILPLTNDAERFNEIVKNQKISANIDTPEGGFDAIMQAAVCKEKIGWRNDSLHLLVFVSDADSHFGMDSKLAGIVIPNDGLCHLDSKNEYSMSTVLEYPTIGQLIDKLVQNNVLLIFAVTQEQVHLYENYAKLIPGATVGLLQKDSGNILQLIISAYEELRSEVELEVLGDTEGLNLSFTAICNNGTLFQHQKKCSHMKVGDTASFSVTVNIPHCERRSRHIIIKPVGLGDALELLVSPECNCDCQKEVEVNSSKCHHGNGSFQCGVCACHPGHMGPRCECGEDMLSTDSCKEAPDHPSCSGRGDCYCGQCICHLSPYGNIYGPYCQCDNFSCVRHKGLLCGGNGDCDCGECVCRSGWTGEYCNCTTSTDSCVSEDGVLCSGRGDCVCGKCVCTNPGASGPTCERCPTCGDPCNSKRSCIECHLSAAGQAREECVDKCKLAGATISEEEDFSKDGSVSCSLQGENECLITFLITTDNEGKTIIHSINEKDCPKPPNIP
Sequence of integrin αVβ1 (P06756 31-1048, chain 1 of 2): as the sequence (P06756 31-1048, chain 1 of 2) above
Sequence of integrin αVβ1 (P05556 21-728, chain 2 of 2, further chain): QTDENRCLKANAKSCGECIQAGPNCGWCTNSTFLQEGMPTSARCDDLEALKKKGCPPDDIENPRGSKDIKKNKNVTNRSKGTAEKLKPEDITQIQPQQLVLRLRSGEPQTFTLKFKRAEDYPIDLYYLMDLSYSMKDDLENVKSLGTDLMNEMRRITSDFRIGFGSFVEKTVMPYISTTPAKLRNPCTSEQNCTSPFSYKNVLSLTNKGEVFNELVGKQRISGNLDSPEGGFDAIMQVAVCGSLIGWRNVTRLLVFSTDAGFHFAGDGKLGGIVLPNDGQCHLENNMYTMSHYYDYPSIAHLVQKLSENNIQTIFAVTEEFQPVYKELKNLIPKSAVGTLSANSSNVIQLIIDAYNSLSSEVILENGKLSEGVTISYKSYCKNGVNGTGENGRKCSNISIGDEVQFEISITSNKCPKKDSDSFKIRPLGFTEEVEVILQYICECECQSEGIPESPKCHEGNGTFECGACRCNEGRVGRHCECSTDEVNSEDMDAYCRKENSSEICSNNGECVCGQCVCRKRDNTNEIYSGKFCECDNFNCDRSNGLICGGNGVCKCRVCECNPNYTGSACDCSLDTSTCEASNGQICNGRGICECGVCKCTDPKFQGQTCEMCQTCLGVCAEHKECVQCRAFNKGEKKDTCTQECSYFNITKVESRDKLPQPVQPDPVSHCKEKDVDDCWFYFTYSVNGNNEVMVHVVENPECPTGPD
Sequence of integrin αVβ3 (P06756 31-1048, chain 1 of 2): as the sequence (P06756 31-1048, chain 1 of 2) above
Sequence of integrin αVβ3 (P05106 27-718, chain 2 of 2, further chain): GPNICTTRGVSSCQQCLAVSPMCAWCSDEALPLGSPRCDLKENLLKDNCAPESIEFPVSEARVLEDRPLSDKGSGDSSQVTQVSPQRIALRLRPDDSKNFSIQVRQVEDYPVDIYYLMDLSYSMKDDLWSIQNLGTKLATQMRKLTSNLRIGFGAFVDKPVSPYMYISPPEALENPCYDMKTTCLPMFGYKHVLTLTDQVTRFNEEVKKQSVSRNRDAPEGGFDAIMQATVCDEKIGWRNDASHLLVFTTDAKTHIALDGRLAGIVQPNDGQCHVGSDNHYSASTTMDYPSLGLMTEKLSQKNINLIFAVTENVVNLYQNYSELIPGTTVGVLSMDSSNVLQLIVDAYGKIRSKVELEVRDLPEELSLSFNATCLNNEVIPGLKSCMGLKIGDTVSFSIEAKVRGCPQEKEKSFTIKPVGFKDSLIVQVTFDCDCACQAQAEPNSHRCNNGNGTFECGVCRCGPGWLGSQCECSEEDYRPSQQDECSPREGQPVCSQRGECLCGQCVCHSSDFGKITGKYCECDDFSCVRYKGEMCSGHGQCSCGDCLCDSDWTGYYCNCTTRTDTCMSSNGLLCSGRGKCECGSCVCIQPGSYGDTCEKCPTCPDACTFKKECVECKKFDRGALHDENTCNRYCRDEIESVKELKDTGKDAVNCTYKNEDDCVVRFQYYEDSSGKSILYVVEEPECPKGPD
Sequence of integrin α5β1 (P08648 42-1049, chain 1 of 2): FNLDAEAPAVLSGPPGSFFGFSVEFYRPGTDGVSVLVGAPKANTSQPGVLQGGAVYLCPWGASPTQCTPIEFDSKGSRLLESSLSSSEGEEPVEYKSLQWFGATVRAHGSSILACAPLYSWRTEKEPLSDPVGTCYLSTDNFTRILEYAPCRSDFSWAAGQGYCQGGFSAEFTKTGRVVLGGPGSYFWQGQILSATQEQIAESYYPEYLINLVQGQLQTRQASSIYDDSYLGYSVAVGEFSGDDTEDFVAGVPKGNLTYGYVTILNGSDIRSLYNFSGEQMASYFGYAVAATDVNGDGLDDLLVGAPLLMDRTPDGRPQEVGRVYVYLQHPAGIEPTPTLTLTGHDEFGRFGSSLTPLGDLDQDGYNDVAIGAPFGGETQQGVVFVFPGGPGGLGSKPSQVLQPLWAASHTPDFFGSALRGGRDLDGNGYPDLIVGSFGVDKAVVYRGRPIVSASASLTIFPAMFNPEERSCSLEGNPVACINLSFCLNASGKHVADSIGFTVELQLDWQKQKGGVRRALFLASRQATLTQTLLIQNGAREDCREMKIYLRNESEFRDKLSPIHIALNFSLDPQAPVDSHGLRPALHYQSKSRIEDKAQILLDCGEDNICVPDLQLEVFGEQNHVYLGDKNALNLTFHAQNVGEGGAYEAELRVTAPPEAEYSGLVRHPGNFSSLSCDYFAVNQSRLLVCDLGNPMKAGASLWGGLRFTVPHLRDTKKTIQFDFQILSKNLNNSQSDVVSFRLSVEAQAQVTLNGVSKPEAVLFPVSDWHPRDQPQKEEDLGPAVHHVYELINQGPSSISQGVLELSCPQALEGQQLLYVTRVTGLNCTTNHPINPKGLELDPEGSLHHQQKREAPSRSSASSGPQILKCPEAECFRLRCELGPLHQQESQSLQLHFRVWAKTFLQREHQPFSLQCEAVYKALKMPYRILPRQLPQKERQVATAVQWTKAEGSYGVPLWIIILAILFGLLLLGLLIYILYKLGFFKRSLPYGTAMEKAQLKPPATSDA
Sequence of integrin α5β1 (P05556 21-728, chain 2 of 2, further chain): as the sequence (P05556 21-728, chain 2 of 2, further chain) above

Turning to “recombinant LIC11051 (rLIC11051), leucine-rich repeat protein of Leptospira interrogans serovar Copenhageni (natural protein)”, the negative-log Kd (pKd) (in general, −log10 of the Kd, conventionally taken in molar units) in test [1] is 7.37.
With “recombinant LIC11505 (rLIC11505), leucine-rich repeat protein of Leptospira interrogans serovar Copenhageni (natural protein)”, the pKd in test [2] is 7.70; in [3], 7.10; in test [4], 7.13; in test [5], 6.72; in test [6], 6.87; in test [7], 6.82. Also, the pKd in test [8] is 6.96; in [9], 7.13; in test [10] it was 7.29; in test [1] it was 7.62; in test [11], 7.19.
